Literature values as cited in article PMC11809415, “Structure of the F-tractin–F-actin complex” (The Journal of Cell Biology, 2025).
“And” between values parts separate entries of the source, which are not always exact repeats. Equal values may be shown once.

Target: F-actin (Oryctolagus cuniculus) (UniProt P68135)

Which Kd does the source give for Lifeact (from UniProt Q08641) here?
The Kd was 14.9 µM and 5.8 µM.
